Measured values published in publication doi:10.1101/2022.02.27.481910 (bioRxiv, 2022).

B1: KaiC-EE (S431E, T432E) (enzyme)
chain: EHQAIAKMRTMIEGFDDISHGGLPIGRSTLVSGTSGTGKTLFSIQFLYNGIIEFDEPGVFVTFEETPQDIIKNARSFGWDLAKLVDEGKLFILDASPDPEGQEVVGGFDLSALIERINYAIQKYRARRVSIDSVTSVFQQYDASSVVRRELFRLVARLKQIGATTVMTTERIEEYGPIARYGVEEFVSDNVVILRNVLEGERRRRTLEILKLRGTSHMKGEYPFTITDHGINIFPLGAMRLTQRSSNVRVSSGVVRLDEMCGGGFFKDSIILATGATGTGKTLLVSRFVENACANKERAILFAYEESRAQLLRNAYSWGMDFEEMERQNLLKIVCAYPESAGLEDHLQIIKSEINDFKPARIAIDSLSALARGVSNNAFRQFVIGVTGYAKQEEITGLFTNTSDQFMGAHSITDSHIEEITDTIILLQYVEIRGEMSRAINVFKMRGSWHDKAIREFMISDKGPDIKDSFRNFERIISGSPTRI

Key:
KaiC-AA (S431A, T432A) = KaiC-AA (S431A, T432A) (UniProt Q79PF4); experiment: cryo-EM structure
cryo-EM structure = biological target: the molecule itself; experiment: cryo-EM structure

Row | Molecule | stoichiometry N (KaiC-AA (S431A, T432A)) | stoichiometry N (cryo-EM structure)
1 | KaiC-AA (S431A, T432A) (from UniProt Q79PF4 14-484) (enzyme) | 6 | –
2 | B1 | – | 6
